Laboratory results published in publication PMC6776994.

Tests used:
[1] = molecular target: CCR5 chemokine receptor (human) (UniProt P51681); test: flow cytometry on cells
[2] = molecular target: CCR5 chemokine receptor (human) (UniProt P51681); test: plasmonic metal-enhanced fluorescence imaging of cells

Sequence of UniProt P51681 (P51681 whole entry): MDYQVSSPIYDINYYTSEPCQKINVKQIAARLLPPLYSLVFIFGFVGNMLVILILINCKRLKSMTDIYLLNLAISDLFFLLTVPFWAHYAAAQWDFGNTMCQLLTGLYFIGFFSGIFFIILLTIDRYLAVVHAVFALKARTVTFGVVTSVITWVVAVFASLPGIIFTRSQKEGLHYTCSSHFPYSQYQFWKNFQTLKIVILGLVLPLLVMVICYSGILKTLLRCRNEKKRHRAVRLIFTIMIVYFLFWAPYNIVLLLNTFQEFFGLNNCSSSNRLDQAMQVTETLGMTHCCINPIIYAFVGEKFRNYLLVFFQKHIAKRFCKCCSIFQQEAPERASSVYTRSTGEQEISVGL

full length single chain (FLSC) IgG1 (Fc fusion)
reduction in CCR5 intensity (staining by mAb 45531) after FLSC IgG1 [1]: 10% | fold increase of CCR5 binding on MVC-treated against untreated cells [2]: 1.65 fold
